Measured values: publication PMC5209733, “U24 from Roseolovirus interacts strongly with Nedd4 WW Domains” (Scientific Reports, 2017)

Legend:
[1] = target: hNedd4L-WW3* domain (third WW domain of human Nedd4-like protein, GST tag removed) (human) (UniProt Q96PU5); test: ITC; peptide titrated into the cleaved WW domain (40 to 150 uM) in the cell; 10 mM sodium phosphate, pH 7.4, 25 °C; MicroCal VP-ITC; bimolecular interaction model; three runs (further runs with 100 mM and 500 mM NaCl told in words only)
Fyn SH3 (Homo sapiens) = Fyn SH3 (Homo sapiens) (UniProt P06241); settings: cited from earlier work
[2] = target: rNedd4-WW2 domain (second WW domain of rat Nedd4, GST tag removed) (rat) (UniProt Q62940); test: ITC; peptide titrated into the cleaved WW domain (40 to 150 uM) in the cell; 10 mM sodium phosphate, pH 7.4, 25 °C; MicroCal VP-ITC; bimolecular interaction model; three runs (further runs with 100 mM and 500 mM NaCl told in words only)
[3] = target: hNedd4-WW3* domain (third WW domain of human Nedd4, GST tag removed) (human) (UniProt P46934); test: as above
[4] = target: rNedd4-WW3/4 domain (third WW domain of rat Nedd4, GST tag removed) (rat) (UniProt Q62940); test: as above
rNedd4-WW3/4 domain (third WW domain of rat Nedd4, GST tag removed) (rat), sequence (Q62940 452-499): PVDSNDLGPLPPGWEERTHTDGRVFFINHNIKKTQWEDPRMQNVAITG

rNedd4-WW2 domain (second WW domain of rat Nedd4, GST tag removed) (rat), sequence (Q62940 whole entry, the tested form may be a part): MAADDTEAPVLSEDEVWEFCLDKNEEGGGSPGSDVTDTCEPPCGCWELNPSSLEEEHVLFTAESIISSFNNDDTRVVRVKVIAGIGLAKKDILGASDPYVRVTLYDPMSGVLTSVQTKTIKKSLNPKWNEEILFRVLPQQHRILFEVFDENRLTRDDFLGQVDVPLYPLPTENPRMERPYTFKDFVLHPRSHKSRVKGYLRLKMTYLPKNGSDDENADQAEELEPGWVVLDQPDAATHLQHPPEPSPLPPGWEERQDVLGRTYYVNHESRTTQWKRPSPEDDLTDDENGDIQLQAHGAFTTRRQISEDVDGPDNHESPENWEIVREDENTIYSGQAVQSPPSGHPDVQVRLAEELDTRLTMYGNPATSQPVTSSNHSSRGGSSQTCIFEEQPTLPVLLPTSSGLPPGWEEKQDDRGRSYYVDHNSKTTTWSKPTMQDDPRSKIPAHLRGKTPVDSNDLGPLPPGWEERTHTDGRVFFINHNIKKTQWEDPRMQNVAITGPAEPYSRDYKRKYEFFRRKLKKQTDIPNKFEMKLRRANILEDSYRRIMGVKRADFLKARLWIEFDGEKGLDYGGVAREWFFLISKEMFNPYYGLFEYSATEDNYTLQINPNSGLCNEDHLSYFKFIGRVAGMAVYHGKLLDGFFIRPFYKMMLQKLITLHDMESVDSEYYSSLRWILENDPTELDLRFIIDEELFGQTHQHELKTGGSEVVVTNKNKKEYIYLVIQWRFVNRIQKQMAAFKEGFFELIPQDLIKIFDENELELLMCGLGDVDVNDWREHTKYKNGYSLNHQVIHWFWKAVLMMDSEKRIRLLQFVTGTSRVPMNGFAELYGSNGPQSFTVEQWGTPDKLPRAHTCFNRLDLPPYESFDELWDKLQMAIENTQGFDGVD
hNedd4-WW3* domain (third WW domain of human Nedd4, GST tag removed) (human), sequence (P46934 whole entry, the tested form may be a part): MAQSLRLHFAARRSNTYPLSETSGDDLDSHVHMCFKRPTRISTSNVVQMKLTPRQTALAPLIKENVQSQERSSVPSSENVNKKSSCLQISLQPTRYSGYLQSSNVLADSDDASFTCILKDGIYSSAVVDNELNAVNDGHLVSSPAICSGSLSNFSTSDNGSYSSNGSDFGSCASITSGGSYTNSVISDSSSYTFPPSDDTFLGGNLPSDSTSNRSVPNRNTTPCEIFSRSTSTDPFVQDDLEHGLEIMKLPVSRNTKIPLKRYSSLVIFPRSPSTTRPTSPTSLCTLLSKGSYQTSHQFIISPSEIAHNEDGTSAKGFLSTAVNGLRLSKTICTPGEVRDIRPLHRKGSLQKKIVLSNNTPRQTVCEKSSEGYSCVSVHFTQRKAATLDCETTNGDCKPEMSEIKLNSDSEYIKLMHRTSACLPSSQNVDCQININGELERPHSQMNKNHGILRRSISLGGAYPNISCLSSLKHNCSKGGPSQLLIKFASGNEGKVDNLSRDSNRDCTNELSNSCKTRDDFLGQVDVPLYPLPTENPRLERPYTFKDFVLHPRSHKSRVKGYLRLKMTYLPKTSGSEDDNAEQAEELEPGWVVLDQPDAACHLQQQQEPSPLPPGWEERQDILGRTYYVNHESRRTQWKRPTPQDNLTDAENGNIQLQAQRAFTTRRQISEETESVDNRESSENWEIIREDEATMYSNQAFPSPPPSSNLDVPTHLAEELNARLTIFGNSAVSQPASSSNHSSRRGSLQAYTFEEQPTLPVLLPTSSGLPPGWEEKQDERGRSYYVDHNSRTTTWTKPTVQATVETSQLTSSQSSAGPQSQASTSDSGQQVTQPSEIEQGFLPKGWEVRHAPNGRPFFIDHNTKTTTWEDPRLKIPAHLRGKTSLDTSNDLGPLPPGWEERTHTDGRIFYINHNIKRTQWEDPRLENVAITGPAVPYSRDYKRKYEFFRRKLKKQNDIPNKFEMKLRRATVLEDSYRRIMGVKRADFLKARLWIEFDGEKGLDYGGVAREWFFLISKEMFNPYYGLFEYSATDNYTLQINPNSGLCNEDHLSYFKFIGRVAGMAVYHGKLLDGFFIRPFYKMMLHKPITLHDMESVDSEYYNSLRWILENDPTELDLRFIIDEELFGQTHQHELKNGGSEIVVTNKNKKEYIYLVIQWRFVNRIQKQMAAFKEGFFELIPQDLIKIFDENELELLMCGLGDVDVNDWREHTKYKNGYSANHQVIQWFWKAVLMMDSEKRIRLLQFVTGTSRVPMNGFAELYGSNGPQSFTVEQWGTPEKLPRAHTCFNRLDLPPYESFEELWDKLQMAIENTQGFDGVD
hNedd4L-WW3* domain (third WW domain of human Nedd4-like protein, GST tag removed) (human), sequence (Q96PU5 496-539): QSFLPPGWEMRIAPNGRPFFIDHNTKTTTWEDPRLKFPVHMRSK
Fyn SH3 (Homo sapiens), sequence (P06241 79-146): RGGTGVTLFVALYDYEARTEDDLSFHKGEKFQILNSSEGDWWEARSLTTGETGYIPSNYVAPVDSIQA

Kd [1] [µM] | dH [1] [kcal/mol] | Substance | Kd (Fyn SH3 (Homo sapiens)) [µM] | Kd [2] [µM] | dH [2] [kcal/mol] | Kd [3] [µM] | dH [3] [kcal/mol] | Kd [4] [µM] | dH [4] [kcal/mol]
4 | -13.8 | Nogo-A PY motif peptide | – | – | – | – | – | – | –
– | – | U24-6A (from UniProt Q69559) | 5000 | – | – | – | – | – | –
– | – | U24-6A peptide (15-mer, N-terminus of U24 from HHV-6A) (from UniProt Q69559 1-15) | – | 155 | -12.9 | 9.7 | -12.7 | – | –
– | – | U24-7 peptide (15-mer, N-terminus of U24 from HHV-7) | – | 87 | -18.2 | 1.98 | -16.8 | 21 | -15.2
